{"source": "patent US20250313611A1", "about": "(VIB VZW, published 2025)", "binders": {"B1": {"name": "VHH R4_DC6 (VHH)", "VHH": "QVQLQESGGGLVQAGDSLRLSCAASGRILSTFTMGWFRQAPGKEREFVAAMRWNGGTKNYADSVKGRFTISRDNANSVVYLQMNSTKPEDTAVYYCAAAYVSKANYGSLWYRTPSLYDYWGQGTQVTVSS"}, "B2": {"name": "VHH R3_DC23 (VHH)", "VHH": "QVQLQESGGGLVQAGDSLTLSCAVSGRIFSTYTMGWFRQAPGKEREFVAAVRWGAGTIYYADSMKGRFTISRDSAKNTVDLQMNSTKPEDTAVYYCGAAYVSKANYGSLWYQDSRRYDYWGQGTQVTVSS"}, "B3": {"name": "VHH R3_C4 (VHH)", "VHH": "QVQLQESGGGLVQAGDSLRLSCAVSGRPFSTYTMGWFRQAPGKEREFVAAMRWSGGTIYYADSVKGRFTISRDNDKNTVNLEMNSLKPEDTAVYYCAAAYVSKANYGSLWYRASGLYDYWGQGTQVTVSS"}, "B4": {"name": "VHH R4_DC16 (VHH)", "VHH": "B3 VHH with D75A, K76Q, E82Q, L109S, A113N"}, "B5": {"name": "VHH R3_DC9 (VHH)", "VHH": "B3 VHH with A14T, A50S, I58M, A61S, E82Q, A113N"}, "B6": {"name": "VHH R4_DC20 (VHH)", "VHH": "B3 VHH with A14T, A50S, I58M, Y59N, K76Q, E82Q, A113N"}, "B7": {"name": "VHH R4_DC9 (VHH)", "VHH": "QVQLQESGGGLVQAGDSLRLSCAASGRIFSTYTMGWFRQAPGMEREFVAAIRWSGSTVYYADSVKGRFTISRDNAKNTVYLQMNSLKPEDTAVYYCAAARVSKANYGTLWYRASGLYDYWGQGTQVTVSS"}, "B8": {"name": "VHH R3_DC20 (VHH)", "VHH": "B3 VHH with D75A, K76Q, E82Q, K87E, A113N"}, "B9": {"name": "VHH R4_DC13 (VHH)", "VHH": "B3 VHH with A14T, A50S, I58V, A61S, E82Q, S85N, L109F, A113N, G115D"}, "B10": {"name": "VHH R3_DC2 (VHH)", "VHH": "B3 VHH with A14T, A50S, I58K, A61S, T69S, K76Q, E82Q, A113N"}, "B11": {"name": "R3_DC23-Fc(YTE) (Fc fusion)", "chain": "DVQLVESGGGLVQPGGSLRLSCAVSGRIFSTYTMGWFRQAPGKEREFVAAVRWGAGTIYYADSVKGRFTISRDNAKNTVYLQMNSLRPEDTAVYYCGAAYVSKANYGSLWYQDSRRYDYWGQGTLVTVSSGGGGSGGGGSDKTHTCPPCPAPELLGGPSVFLFPPKPKDTLYITREPEVTCVVVDVSHEDPEVKFNWYVDGVEVHNAKTKPREEQYNSTYRVVSVLTVLHQDWLNGKEYKCKVSNKALPAPIEKTISKAKGQPREPQVYTLPPSRDELTKNQVSLTCLVKGFYPSDIAVEWESNGQPENNYKTTPPVLDSDGSFFLYSKLTVDKSRWQQGNVFSCSVMHEALHNHYTQKSLSLSPG"}}, "key": {"[1]": {"molecular_target": "T1, SARS-COV-2 spike (614G-del18) (SARS-CoV-2, UniProt P0DTC2 14-1255)"}, "[2]": {"molecular_target": "SARS-COV-2 spike protein (Wuhan) expressed on transfected cells (SARS-CoV-2 (Wuhan), UniProt P0DTC2 14-1273)"}, "[3]": {"molecular_target": "T1, SARS-COV-2 spike (614G-del18)", "assay": "cell-based or functional assay"}, "[4]": {"molecular_target": "T1, SARS-COV-2 spike (614G-del18)", "assay": "flow cytometry, transfected HEK cells, MFI GFP+/GFP- cells [1/3]"}, "[5]": {"molecular_target": "T1, SARS-COV-2 spike (614G-del18)", "assay": "flow cytometry, transfected HEK cells, MFI GFP+/GFP- cells [3/3]"}, "[6]": {"molecular_target": "T1, SARS-COV-2 spike (614G-del18)", "assay": "flow cytometry, transfected HEK cells, MFI GFP+/GFP- cells [2/3]"}, "[7]": {"molecular_target": "T1, SARS-COV-2 spike (614G-del18)", "remark": "listed apart in the source"}, "[8]": {"molecular_target": "SARS-COV-2 Omicron BA.2 spike (pCG1, del18) (SARS-CoV-2 Omicron BA.2, UniProt P0DTC2 14-1255)", "assay": "cell-based or functional assay"}, "[9]": {"molecular_target": "SARS-COV-2 Omicron BA.1 spike (pCG1, del18) (SARS-CoV-2 Omicron BA.1, UniProt P0DTC2 14-1255)", "assay": "cell-based or functional assay"}, "[10]": {"molecular_target": "SARS-COV-2 Omicron BA.2.75 spike (pCG1, del18) (SARS-CoV-2 Omicron BA.2.75, UniProt P0DTC2 14-1255)", "assay": "cell-based or functional assay"}, "[11]": {"molecular_target": "SARS-COV-2 Omicron BQ.1.1 spike (pCG1, del18) (SARS-CoV-2 Omicron BQ.1.1, UniProt P0DTC2 14-1255)", "assay": "cell-based or functional assay"}, "[12]": {"molecular_target": "SARS-COV-2 Omicron BA.4.6 spike (pCG1, del18) (SARS-CoV-2 Omicron BA.4.6, UniProt P0DTC2 14-1255)", "assay": "cell-based or functional assay"}, "[13]": {"molecular_target": "SARS-COV-2 Omicron XBB spike (pCG1, del18) (SARS-CoV-2 Omicron XBB, UniProt P0DTC2 14-1255)", "assay": "cell-based or functional assay"}}, "note": "Numbering of substitutions follows the chain as printed. “And” between values parts separate entries of the source, which are not always exact repeats. Identical values can stand only once. Like-named read-outs stand apart in the source and are kept apart here.", "data": [{"binder": "B1", "values": [{"measurement": "EC50 (read off the curve)", "setting": "[1]", "value": "~2", "unit": "ng/mL"}]}, {"binder": "B2", "values": [{"measurement": "EC50 (read off the curve)", "setting": "[2]", "value": "~10", "unit": "ng/mL"}, {"measurement": "EC50 (read off the curve)", "setting": "[1]", "value": "~10", "unit": "ng/mL"}, {"measurement": "IC50, neutralisation of VSV pseudotyped with spike, Vero E6 cells", "setting": "[3]", "value": "< 1", "unit": "ng/mL"}, {"measurement": "IC50, neutralisation of VSV spike pseudotypes", "setting": "[3]", "value": "1.2 ng/ml and 80 µM and ~1 ng/ml"}]}, {"binder": "B3", "values": [{"measurement": "binding result", "setting": "[4]", "value": "binds"}]}, {"binder": "B4", "values": [{"measurement": "binding result", "setting": "[5]", "value": "binds"}]}, {"binder": "B5", "values": [{"measurement": "binding result", "setting": "[4]", "value": "binds"}]}, {"binder": "B6", "values": [{"measurement": "binding result", "setting": "[5]", "value": "binds"}]}, {"binder": "B7", "values": [{"measurement": "IC50, neutralisation of VSV pseudotyped with spike, Vero E6 cells", "setting": "[3]", "value": "~100", "unit": "ng/mL"}, {"measurement": "IC50, neutralisation of VSV spike pseudotypes", "setting": "[3]", "value": "68.9 ng/ml and 4680 µM"}]}, {"binder": "B8", "values": [{"measurement": "binding result", "setting": "[4]", "value": "binds"}]}, {"binder": "B9", "values": [{"measurement": "binding result", "setting": "[6]", "value": "binds"}]}, {"binder": "B10", "values": [{"measurement": "binding result", "setting": "[4]", "value": "binds"}]}, {"binder": "B11", "values": [{"measurement": "EC50 (read off the curve)", "setting": "[7]", "value": "~100", "unit": "ng/mL"}, {"measurement": "EC50, neutralisation of VSV pseudotyped with spike", "setting": "[8]", "value": 0.35, "unit": "ng/mL"}, {"measurement": "IC50, neutralisation of VSV pseudotyped with spike", "setting": "[8]", "value": "~1", "unit": "ng/mL"}, {"measurement": "EC50, neutralisation of VSV pseudotyped with spike", "setting": "[9]", "value": 1, "unit": "ng/mL"}, {"measurement": "IC50, neutralisation of VSV pseudotyped with spike", "setting": "[9]", "value": "~1", "unit": "ng/mL"}, {"measurement": "IC50, neutralisation of VSV pseudotyped with spike", "setting": "[10]", "value": "~1", "unit": "ng/mL"}, {"measurement": "IC50, neutralisation of VSV pseudotyped with spike", "setting": "[11]", "value": "~1", "unit": "ng/mL"}, {"measurement": "IC50, neutralisation of VSV pseudotyped with spike", "setting": "[12]", "value": "~1", "unit": "ng/mL"}, {"measurement": "EC50, neutralisation of VSV pseudotyped with spike", "setting": "[3]", "value": 1, "unit": "ng/mL"}, {"measurement": "IC50, neutralisation of VSV pseudotyped with spike", "setting": "[13]", "value": "~1", "unit": "ng/mL"}]}]}
